From patent publication KR20230010676A (dated 2023)
Numbering of substitutions follows the chain as printed. Where two headings read alike, the source gives them in different places.

B1: S2X30 (antibody, V domains shown)
VH: EVQLVQSGAEVKKPGSSVKVSCKASGGTFGSYTISWVRQAPGQGLEWMGRIIPILSIPNYAQKFQGRVTFTADKSTSTAYMELSSLRSEDTAVYYCARGGGGTHAVPHYYFDSWGQGTLVTVSS
VL: EIVMMQSPATLSVSPGERATLSCRASQSVSSNLAWYQHKPGQAPRLLIYGASTRATGIPARFSGSGSGTEFTLTISSMQSEDFAVYYCQQYNNWPFTFGGGTKVEIK
notes: also called S2X30-11
B2: S2X35 (antibody, V domains shown)
VH: QVQLVQSGAEVKKPGASVKVSCKASGYTFTNYGISWVRQAPGQGLEWMGWISAYKGNTNYAQKLQGRVTMTTDTSTSTAYMELRSLRSDDTAVYYCARPDYQVLGYDFWIGYYGMDVWGQGTTVIVSS
VL: QSVLTQPPSVSGAPGQRVTISCTGSSSNIGAGYDVHWYQQLPGTAPKLLIYGNTNRPSGVPDRFSGSKSGTSASLAITGLQAEDEADYYCQSYDSSLSGSEVVFGGGTKLTVL
notes: also called S2X35-11
B3: S2E12 (antibody, V domains shown)
VH: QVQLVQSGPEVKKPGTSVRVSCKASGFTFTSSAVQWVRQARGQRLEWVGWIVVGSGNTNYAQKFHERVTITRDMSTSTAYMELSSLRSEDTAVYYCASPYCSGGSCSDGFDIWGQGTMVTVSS
VL: DIVLTQTPGTLSLSPGERATLSCRASQSVSSSYLAWYQQKPGQAPRLLIYGASSRATGIPDRFSGSGSGTDFTLTISRLEPEDFAVYYCQQYVGLTGWTFGQGTKVEIK
notes: also called S2E12 WT; S2E12 wt
B4: 409_11_4_v5 (antibody, V domains shown)
VH: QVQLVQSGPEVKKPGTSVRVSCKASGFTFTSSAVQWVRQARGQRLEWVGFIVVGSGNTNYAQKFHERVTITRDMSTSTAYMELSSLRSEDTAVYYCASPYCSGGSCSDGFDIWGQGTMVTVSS
VL: B3 VL
B5: 409_11_4_v7 (antibody, V domains shown)
VH: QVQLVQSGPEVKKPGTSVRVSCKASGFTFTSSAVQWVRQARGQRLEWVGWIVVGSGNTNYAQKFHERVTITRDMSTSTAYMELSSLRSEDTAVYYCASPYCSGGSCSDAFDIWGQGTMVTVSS
VL: B3 VL
B6: 409_11_4_v3 (antibody, V domains shown)
VH: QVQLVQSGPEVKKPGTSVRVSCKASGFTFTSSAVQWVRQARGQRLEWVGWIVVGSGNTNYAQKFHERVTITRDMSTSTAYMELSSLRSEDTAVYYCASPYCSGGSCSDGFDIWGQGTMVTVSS
VL: B3 VL with W98F
B7: 409_11_4_v13 (antibody, V domains shown)
VH: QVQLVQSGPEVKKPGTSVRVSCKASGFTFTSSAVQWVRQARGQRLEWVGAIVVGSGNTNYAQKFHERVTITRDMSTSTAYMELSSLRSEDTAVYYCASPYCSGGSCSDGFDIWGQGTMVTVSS
VL: B3 VL
B8: 409_11_4_v2 (antibody, V domains shown)
VH: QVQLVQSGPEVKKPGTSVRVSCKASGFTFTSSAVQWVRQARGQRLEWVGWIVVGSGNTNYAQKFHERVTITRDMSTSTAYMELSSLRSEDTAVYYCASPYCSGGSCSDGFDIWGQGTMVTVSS
VL: B3 VL with L47A
notes: also called S2E12-v2
B9: 409_11_4_v4 (antibody, V domains shown)
VH: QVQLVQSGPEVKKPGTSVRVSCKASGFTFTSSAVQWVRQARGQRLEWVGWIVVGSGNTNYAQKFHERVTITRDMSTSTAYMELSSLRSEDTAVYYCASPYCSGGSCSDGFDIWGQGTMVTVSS
VL: B3 VL with W98Y
B10: 409_11_4_v12 (antibody, V domains shown)
VH: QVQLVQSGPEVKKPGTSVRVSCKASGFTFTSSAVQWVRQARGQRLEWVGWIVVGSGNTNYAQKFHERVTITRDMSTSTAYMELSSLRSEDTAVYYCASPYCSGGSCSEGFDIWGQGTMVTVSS
VL: B3 VL
B11: 409_11_4_v6 (antibody, V domains shown)
VH: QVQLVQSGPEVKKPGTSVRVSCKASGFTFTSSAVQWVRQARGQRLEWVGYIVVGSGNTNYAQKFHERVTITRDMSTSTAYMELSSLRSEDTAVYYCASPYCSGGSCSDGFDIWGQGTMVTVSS
VL: B3 VL
B12: S2X47 (antibody, V domains shown)
VH: QVQLQESGPGLVKPSQTLSLTCTVSGGSISSRSYYWSWIRQPAGKGLEWIGRIYTSGNTNYNPSLRSRVTISVDTSKNQFSLKLGSVTAADTAVYYCARERIIGTAHVGGWFDPWGQGTLVTVSS
VL: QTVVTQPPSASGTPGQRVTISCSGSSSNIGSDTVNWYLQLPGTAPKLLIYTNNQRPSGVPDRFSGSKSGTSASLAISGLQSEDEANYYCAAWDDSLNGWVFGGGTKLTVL
notes: also called S2X47-11
B13: S2X16 (antibody, V domains shown)
VH: EVQLVQSGAEVKKPGASVKVSCKASGYIFTDHYMHWVRQAPGQGLEWMGWINPNSGGTNYAQKFQGRVTMTRDTSINTAYMELSRLRSDDTAVHYCARDRSRFRFFSPDFDYWGQGTLVTVSS
VL: not shown
notes: also called S2X16-11

Assays:
[1] = target: SARS-CoV-2 스파이크 단백질 (SARS-CoV-2, UniProt P0DTC2 14-1273); assay: cell-based or functional assay
[2] = target: T1, SARS-CoV RBD (Sino Biological) (SARS-CoV (SARS-CoV-1), UniProt P59594 306-527); assay: ELISA, RBD coated on plate
T1 construct: domain: RBD; also called SARS-CoV-1 RBD; SARS-CoV-1 스파이크 단백질 RBD

[3] = target: T2, SARS-CoV-2 RBD (자체 생산, BetaCoV/Wuhan-Hu-1/2019 스파이크의 잔기 331 내지 550, 수탁 번호 MN908947) (SARS-CoV-2 (BetaCoV/Wuhan-Hu-1/2019), UniProt P0DTC2 331-550); assay: ELISA, RBD coated on plate, serial dilutions of recombinant mAb
T2 construct: range 331-550; also called SARS-CoV-2 스파이크 단백질 RBD

[4] = target: T1, SARS-CoV RBD (Sino Biological); assay: as above
[5] = target: T3, SARS-CoV-2 RBD (정제된, SPR) (SARS-CoV-2 (Wuhan-Hu-1), UniProt P0DTC2 331-550)
[6] = target: T3, SARS-CoV-2 RBD (정제된, SPR); remark: listed apart in the source
[7] = target: T3, SARS-CoV-2 RBD (정제된, SPR); assay: SPR, Biacore T200; ratio against S2E12 WT
[8] = target: T2, SARS-CoV-2 RBD (자체 생산, …); assay: ELISA, RBD coated on plate, serial dilutions of recombinant mAb; remark: listed apart in the source
[9] = target: T3, SARS-CoV-2 RBD (정제된, SPR); assay: SPR, Biacore T200, single-cycle kinetics, antibody captured, RBD injected
[10] = target: T3, SARS-CoV-2 RBD (정제된, SPR); assay: SPR, Biacore T200; ratio against S2E12 WT; remark: listed apart in the source

| Binder | IC50 (neutralisation) [1] [µg/mL] | IC80 (neutralisation) [1] [µg/mL] | IC90 (neutralisation) [1] [µg/mL] | Kd [6] [nM] | KD_WT/KD [7] | Kd [9] [nM] | koff [9] [s⁻¹] | kon [9] [M⁻¹ s⁻¹] | also measured |
| --- | --- | --- | --- | --- | --- | --- | --- | --- | --- |
| B1 | 0.015 | 0.031 | 0.046 | – | – | – | – | – | binding result [2]: no binding |
| B2 | 0.092 | 0.32 | 0.661 | – | – | – | – | – | EC50 [3]: 0.0483 µg/mL; EC50 [4]: 0.0846 µg/mL |
| B3 | – | – | – | 2.28 | 1 | 1.18 | 0.00233 | 1.98e+06 | Kd [5]: 1.31 nM; koff [5]: 0.00317 s⁻¹; kon [5]: 2.42e+06 M⁻¹ s⁻¹; EC50 [8]: 0.0434 µg/mL |
| B4 | – | – | – | – | – | 13.3 | 0.0358 | 2.68e+06 | KD/KD_WT [10]: 0.098 |
| B5 | – | – | – | – | – | 4.9 | 0.00913 | 1.86e+06 | KD/KD_WT [10]: 0.267 |
| B6 | – | – | – | – | – | 13 | 0.0153 | 1.18e+06 | KD/KD_WT [10]: 0.1 |
| B7 | – | – | – | 51.4 | 0.04 | – | – | – | – |
| B8 | – | – | – | 0.788 | 2.89 | – | – | – | – |
| B9 | – | – | – | 25.9 | 0.09 | – | – | – | – |
| B10 | – | – | – | 45.3 | 0.05 | – | – | – | – |
| B11 | – | – | – | 20.4 | 0.11 | – | – | – | – |
| B12 | 0.003 | 0.012 | 0.025 | – | – | – | – | – | binding result [2]: no binding; EC50 [3]: 0.092 µg/mL |
| B13 | 0.006 | 0.022 | 0.046 | – | – | – | – | – | binding result [2]: no binding |
